Reference: the DeepSol protein solubility set

Assay: soluble on expression in E. coli; label from the status in PepcDB or PDB records

In the case of “NKDMALTVRGNFTHAENEVIYWEQSGVNYPYQSNSGVPYKVQRGLIALGLFKDEDDIKSSPKQTFMDNYRPGDIKYKDVNGDGKIDKDDVVPLNYSAVPFIQYGFALDWNYKAFRVSILFEGVSKVQYFQGGRGFYPFLNESRGNLLEMVADPRNRWIPREYAEVNGIDPALAENPNAKFPRLTYGENKNNNQESTFWLADGKYLRLKNVDVSYRFTNNWLKSRVGVESATLSLIGENLHVWDKVKLFDPSQASGNGAEYPLQRMYTLQLNLTF”, the “soluble on expression in E. coli” value is reported as “not soluble”.
In the case of “MGSDKIHHHHHHMDMQQLKPSREHDAPLYLQLYRRYRDAIIARKLHPGDRVPSVRSLASELNLARGTVEMAYQMLASEGYFLTRGPAGTIVSPQLEKLTESGYSTTSLSQIPSRPQIETAQVQPFQLGLPALDAFPRKTWARLAGHNLRTLDTAAMISPDPAGYEPLRRAIATYLGISRGITCTHEQVFITAGYRGALELVCRTLLQPGDIGWFEDPGYIFARQFLARAGMHLEPVPVDEEGLNVDIGQQRAAEARFAVVTPTHQSPMGMALSLPRRLQLLEWASHHRSWIIEDDYDSEFRYHGRPLPALKSLDRDGRVLYTGTFSKVLFPGLRLAYLVVPEPQIERFRDTANHFCCAGSILPQATVANFMEQGHFARHLRRMRSLYAIRRGYLVDELLQALGSHLTVQPQAGGIHVLATLTARGNDQSLAAAAQSHGLAIQALNDWRTSKTSRGGLLMGFTNVTEPAMAKALVHRLAAAIGLS”, the “soluble on expression in E. coli” value is reported as “not soluble”.
For “MGSDKIHHHHHHMTQNTPLFSMESVSVRHNSVPALDAVSWTLHRGAHCAVLGGNGAGKSTLLRLAAGAIRPDQHDGGTVLWFPRGSAEDSPIAVRTHCGLVSAEQQEHYLRRSWRITGEEIVLSGYFGTDMLYRPAGTAQRHAAARLAKALDAEHLMPVMLEAMSQGQLRKILLARAMVHSPQLLLLDEVCEGLDAAARREMLAAIDRAAALGTTVLMSGHRAGQFPDCIRQAVLLRQGRLVFTGGLHQALHLMRTTHQPLPAGASDTAAGQCSCCTPPPACAGAAPVVEIEHADVYLGRTPVLHDITWSILPGQNWVVRGPNGAGKSTLLRLLYGDQRQAWGGIVRWFGMAGPVPLEEVRRNVALVSDRVQALYGHDGYHSTRLELNGEELVHTGFYDSTGLWGKTPDAQQHAAALRWMDRLGIAALAGTDIRRMSYGTLRRFMLARALVRDPQLLILDEPLSGLDESARRIMLTTLSALMRSGRQLVLVTHHQEDIQPETTHELHLNAGRITYCGPVCPAGDTL”, the “soluble on expression in E. coli” value was “not soluble”.
In the case of “MKTGDKQFAVIGLGRFGLAVCKELQDSGSQVLAVDINEDRVKEAAGFVSQAIVANCTHEETVAELKLDDYDMVMIAIGADVNASILATLIAKEAGVKSVWVKANDRFQARVLQKIGADHIIMPERDMGIRVARKMLDKRVLEFHPLGSGLAMTEFVVGSRLMGKTLSDLALCKVEGVQVLGFKRGPEIIKAPDMSTTLEIGDLIIVVGPQDKLANKLKSLLEHHHHHH”, the “soluble on expression in E. coli” value is reported as “not soluble”.
For “MGSDKIHHHHHHVAIALDFGTSNTVVARWNTETQSPELLSLTNLSQRGSQTPPLIPSLLYVEEATMPRLLAGQAVRDQGRDRPQDSRFFRSFKRGIGAEVTGFLPDLDGVCPDFEQVGQWFLDTVIAALEPGDRDGADLVLTVPVDSFENYRLWLSRVAQQWPVDRVRLIDEPTAAALGYGVEQQSPILVFDFGGGTLDLALIELGQTTSKVRSPLGFILKWGDQSFGDNSGQRPQLARVLAKAGRNLGGNDLDDWLTDYFAKQLNTAPTRVLTRLAERIKIQLSTTPEASEVYFDDETLQSLQLQLDRSQFQQILHDRGFFEQLDELLESVLQQGRRQGINPDAIAAVLMVGGSAQIPAVQDWLAGYFPTEKIRCDRPFEAVACGALQLAQGLEVRDFLYHSYGIRYWNHRSQRHDWHPLIPPGQAYPMAEPVELVLGASVAQQPSMELVLGELSQDRGATEIFFDGDRLITRRIGPDRTAAKALNDSETARTIARLDPPGDPGVDRLRLQFWVDRDRFLRVTIEDLLTLETVVENQVVIQL”, the “soluble on expression in E. coli” value was “not soluble”.
In the case of “MGSDKIHHHHHHMINCIIVEDAPLAVDKLKNFISKVPLLDLAGTFDNGLDAFDFLQSNTIDLLFLDIQMEQFTGLQLLQALHTRPHIIIVSAYGEYAVQGFEYDVTDYLLKPYSFERFLKAVNKVQTEMASNPPAQPLPKDYIFLKTEYRMVRINLCDILYIEGKGAYLHVITDTTRIMTLLSFKEIESLLPAKQFIRIHKSYLIAINKIDNIERNVVKIANMRIPIGKSYLKDFYLRLQ”, the “soluble on expression in E. coli” value is reported as “not soluble”.
For “MSLSDRDSTLSRLKSAGENGDVEAQYALGLMYLYGEILDVDYQQAKIWYEKAADQNDPRAQAKLGVMYANGLGVNQDYQQSKLWYEKAAAQNDVDAQFLLGEMYDDGLGVSQDYQHAKMWYEKAAAQNDERAQVNLAVLYAKGNGVEQDYRQAKSWYEKAAAQNSPDAQFALGILYANANGVEQDYQQAKDWYEKAAEQNFANAQFNLGMLYYKGEGVKQNFRQAREWFEKAASQNQPNAQYNLGQIYYYGQGVTQSYRQAKDWFEKAAEKGHVDAQYNLGVIYENGEGVSQNYQQAKAWYEKAASQNDAQAQFELGVMNELGQGESIDLKQARHYYERSCNNGLKKGCERLKELLYKEGHHHHHH”, the “soluble on expression in E. coli” value was “soluble”.
With “AETSSATTAQQMPSLAPMLEKVMPSVVSINVEGSTTVNTPRMPRNFQQFFGDDSPFCQEGSPFQSSPFCQGGQGGNGGGQQQKFMALGSGVIIDADKGYVVTNNHVVDNATVIKVQLSDGRKFDAKMVGKDPRSDIALIQIQNPKNLTAIKMADSDALRVGDYTVAIGNPFGLGETVTSGIVSALGRSGLNAENYENFIQTDAAINRGNSGGALVNLNGELIGINTAILAPDGGNIGIGFAIPSNMVKNLTSQMVEYGQVKRGELGIMGTELNSELAKAMKVDAQRGAFVSQVLPNSSAAKAGIKAGDVITSLNGKPISSFAALRAQVGTMPVGSKLTLGLLRDGKQVNVNLELQQSSQNQVDSSSIFNGIEGAEMSNKGKDQGVVVNNVKTGTPAAQIGLKKGDVIIGANQQAVKNIAELRKVLDSKPSVLALNIQRGDSTIYLLMQ” the “soluble on expression in E. coli” value was “soluble”.
For “MELKKIVEAILFSSSEPVDARELRKITGKDKVEILNAIGELIKDYESRDTSIEIIKVGEKYLMRVKPQYAEYVERFTVREFDRGTLRTLAVIALKQPITLAKVAKIRGNKCYEHVKKLQERGLVKAEKKGRSTILTTTEEFATYFGLDSAEPEKIKEALKGYLEAE”, the “soluble on expression in E. coli” value was “soluble”.
In the case of “MSLSFKGFKVVMLILLSTQSYASKLASSIVCDSTIENPCIVQDSKTQFSPVIRYREVASIADVYGGNITGINKFHLSGSEQPSEKGWEAIAESISRKMGAETKKVIVLDLRQESHGYLNGRAITLVSAYNWINLGKSNSQSTLDQENWLAGLRSRKIVNGVLTVPQYVAKQYSQGKSMVVSTVKNEEYYVYKKGFDYYRIFISDHRAPLDSEVDALVALIKNNPEDTWYHVHCRGGKGRTTTVFAMFDMLKNADKVSFEEIIARQASIPPFYNLMVTNREIPELTPYYEQRLQFLIHFYEFARQSLMGYSGTWSEWKKLNEGHHHHHH”, the “soluble on expression in E. coli” value is reported as “soluble”.
For “SSPFLYLVLLVLGLHATIHCASPEGKVTACHSSQPNATLYKMSSINADFAFNLYRRFTVETPDKNIFFSPVSISAALVMLSFGACCSTQTEIVETLGFNLTDTPMVEIQHGFQHLICSLNFPKKELELQIGNALFIGKHLKPLAKFLNDVKTLYETEVFSTDFSNISAAKQEINSHVEMQTKGKVVGLIQDLKPNTIMVLVNYIHFKAQWANPFDPSKTEDSSSFLIDKTTTVQVPMMHQMEQYYHLVDMELNCTVLQMDYSKNALALFVLPKEGQMESVEAAMSSKTLKKWNRLLQKGWVDLFVPKFSISATYDLGATLLKMGIQHAYSENADFSGLTEDNGLKLSNAAHKAVLHIGEKGTEAAAVPEVELSDQPENTFLHPIIQIDRSFMLLILERSTRSILFLGKVVNPTEA”, the “soluble on expression in E. coli” value was “not soluble”.
With “MAHHHHHHMSLVKMKERDEKAREEAEKLLNEVIEQSQGKMYKPTAAAGVGVNTQPHNRRMRVETLRSTPDYIFKIILVGDSYVGKTRFLKNLVGAIGFGDQCVTTLSVDVVNHYVIVDGKTVQVLMYDTCGQERFRAMTAQFYRDAHGAIMVYDTTQIGSFDNIEVWFSQLNSFGCENTSKILVGNKCDLPERRAVEIGRARALADKLGVPFIETSAMTGAGVAVAVEALVRMIMRQQPVPLASQWAGSKSGHRNAVNLERPRRENGTGRRSERSQRNDNCCCQ” the “soluble on expression in E. coli” value was “soluble”.
In the case of “MASEALHQVGDGEEAVLKKENFNMMNALDQLPKPFPNPKSMNRTVTTKGLPLASKGNLVNFLEDDTINLLKPLPVEDSDCSSDETSISAFSSTLLNPIKLAVTQPNSSFFAGMLEGELNKLSFSPMAKNAENEDLALGPCPCPSKSQMATRGLLDLDNPELETETSSTHSESSVVVDLPDTPFIFEHTVNNSTAVISWTYALGKQPVSFYQLLLQEVAKTQENELPEAKNRPWIFNKILGTTVKLMELKPNTCYCLSVRAANTAGVGKWCKPYKFATLATDFSSFPENYPIQITVRRKEPRQKIVSIGPEEMRRLEDLEYLFPC”, the “soluble on expression in E. coli” value is reported as “soluble”.
For “MPDHLQPTLFQDAGKTQASDTFQELLASIAARPKYLPDWPESHRALPNEILRSALFNCRNRNLPRMFLKEVEIAVIGDGQVIYRGEELRQDDELVWMHLMHLIKKSPLGECVEFTPYSFIKALGWPIKGQNYDRLRNCLSRMQATALRIQSKRLHSFVSISLIQKFLSRNERNESLTRWQVWVGKEMQLLFDEEFLTRVMWETRRSLPDGIASKLFGYWASHRKPYPVKVETLLKLCGSGMQTKHFKIELKRALDLLKQSGFLEAWELKDELVVVVRRH”, the “soluble on expression in E. coli” value was “not soluble”.
For “MGSDKIHHHHHHMSSGLYLYGIFPDPIPETVTLQGLDSQLVYSQIIDGFTFLYSEAKQEKYLASRRNLISHEKVLEQAMHAGFRTLLPLRFGLVVKNWETVVTQLLQPYKAQLRELFQKLAGRREVSVKIFWDSKAELQAMMDSHQDLKQKRDQMEGKALSMEEVIHIGQLIESNLLSRKESIIQVFFDELKPLADEVIESDPMTEDMIYNAAFLIPWENESIFSQQVESIDHKFDERLRIRYNNFTAPYTFAQIS”, the “soluble on expression in E. coli” value was “not soluble”.
With “MKTSETTRPTLSSLPVGKRAEEGTPHNLFTVIGLDDSPSPYLSPSVKALIDQGCVFSGGVRHHDIVAPLLPAGAKWIDITVPLDQVFARYAGHPHIIVFASGDPIFFGFANTIRRRLPDAEIRLYPSFNSLQTLAHRLVMPYDDMRTISLTGRPWHGFDRALIERTPKMGILTDREHTPATIASRMLDYGYNDYTMYIGEHLGHPTKELIRRMTLEEAAAETFEYPNCLILTTGDGLQSVNGGILSPRFFGIPDEAFELLDGRARMITKAPIRLLTLSALELNRRTSFWDIGFCTGSVSIEARLQFPHLHVTSFEIRPEGKRLMEINSRRFGTPGITTVIGDFLETDTAIYPCPDAVFIGGHGGRLKEIISRVRHKLLPGARIVFNSVSEESKTHFIEAANESGLCFLGGTRVAINEYNPIEILVASAPDSPYL” the “soluble on expression in E. coli” value was “not soluble”.
For “MAIGSKIIKPGGSDPDDFEKSIAQALVELEANSDLKPYLRDLHITRAREIEFGSKKAVIIYVPIPQQKVFQKIQIILVRELEKKFSGKHVVVIAERKILPKPTRKARNPLKQKRPRSRTLTAVYDAILEDLVFPAEIVGKRIRVKLDGSQLVKVHLDKNQQTTIEHKVDTFTSVYKKLTGRDVTFEFPDNYLNV”, the “soluble on expression in E. coli” value was “not soluble”.
For “MSLILVKDAIITGKKQDLLVEGNIIKKIGNISISEVSKDETEIIDGKNCVLIPGLINTHTHVPMSLFRGVADDIPLMEWLSGHIWPMESKLNEKIVYAGTLLGTIEMIKSGTTAFNDMYFFLDSIIKAVDETGIRSTIAYGMIDLFDEEKREKELKTAKESLEMIKNLNNSRITGALGPHAPYTCSKEILESTNALAREYNVPIHIHMNETLDEINQVVEKTGMRPFEYLNSFGFFDNVNTICAHCVHLSASEIQIMKEKNIFAAHNPVSNLKLASGVSPVLKLLENNIPVTLGTDGCGSNNNMNLFEEIKAAALIHKGVNLNPVAVIAKDAFDFGTKNGAKALNINSGEIKEGKLADFVLINMKKPYLTPKENIESHLVYSFNGVVDKVVIDGKLVLNDGKMVNIDEEKVYEIAEEAYFELANEGHHHHHH”, the “soluble on expression in E. coli” value was “not soluble”.
